Laboratory results published in patent US20050182242A1, “Global analysis of protein activities using proteome chips” (priority 2001, published 2005).

How the values were obtained:
[1] = tested on: phosphatidylcholine (PC) liposomes; test: Yeast proteome chip probed with PC liposomes; details: liposome binding signal on yeast proteome chip, Cy3-streptavidin detection
From the text: (§1) To identify PI-binding proteins in yeast, liposomes were used as probes because the liposome provides the most relevant physiological condition to assay the interactors. Six types of liposomes were used. Each contains phosphatidylcholine (“PC”) with 1% (w/w) N-(biotinoyl)-1,2-dihexadecanoyl-sn-glycero-3-phosphoethanolamine, triethylammonium salt (biotin DHPE). The biotinylated lipid serves as a label that can be detected by Cy3-streptavidin (21). In addition to PC, the five other liposomes contain either 5% (w/w) PI(3)P, PI(4)P, PI(3,4)P2, PI(4,5)P2, or PI(3,4,5)P3 (FIG. 3A).
(§2) The protein-liposome interaction was assayed as follows. Appropriate amounts of each lipid in chloroform were mixed and dried under nitrogen. The lipid mixture was resuspended in TBS buffer by vortexing. The liposomes were created by sonication. Blocked proteome chips were washed three to five times in PBS buffer, and the extra liquid on the glass surface was removed by tapping the slides vertically on a KIMWIPE™. 200 μl of liposome solution was added to the proteome chip and immediately covered by a hydrophobic plastic cover slip (GRACE BIO-LAB™, USA). After trapped air bubbles were removed, the chip was incubated in a humidity chamber at RT for one hour. To remove the cover slip, the chip was immersed into large volume of PBS buffer (50 ml), so that the slip would float away. The chip was then moved to a second PBS bath (>50 ml) and washed 3×5 min with shaking at RT. After removing extra liquid on the surface of the chip, about 100 μl of Cy3 or Cy5 conjugated streptavidin (PIERCE™, USA; 1:2000 to 1:4000 dilution) was added to the surface and covered by a hydrophobic plastic cover slip (GRACE BIO-LABS™, USA). The chip was incubated for greater than 30 min in the dark at RT. The chip was then washed as described above. To completely remove the liquid on the chip, the chip was spun to dryness at 1500-2000 rpm for 5-10 min at RT.
(§3) • 1. S. Fields, Y. Kohara, D. J. Lockhart, Proc. Natl. Acad. Sci. 96, 8825 (1999); A. Goffeau et al., Science 274, 563 (1996). • 2 P. Ross-Macdonald et al., Nature 402, 413 (1999); J. L., DeRisi, V. R. Iyer, P. O. Brown, Science 278, 680 (1997); E. A. Winzeler et al., Science 285, 901 (1999). P. Uetz et al., Nature 403, 623 (2000); T. Ito et al., Proc. Natl. Acad. Sci. USA. 97, 1143 (2000) • 3 H. Zhu, M. Snyder, Curr. Opin. Chem. Biol. 5, 40 (2001). • 4 M. R. Martzen et al., Science 286, 1153 (1999). • 5 H. Zhu et al., Nat. Genet. 26, 283 (2000). • 6 G. MacBeath, S. L. Schreiber, Science 289, 1760 (2000). • 7 A. Caveman, J. Cell Sci. 113, 3543 (2000). • 8 P. Arenkov et al., Anal. Biochem 278, 123 (2000). • 9 D. A. Mitchell, T. K. Marshall, R. J. Deschenes, Yeast 9, 715 (1993). The expression vector pEGH was created by inserting an RGS-HisX6 epitope tag between the GST gene and the polycloning site of pEG(KG). The yeast ORFs were cloned using the strategy described previously (5), except every step was done in a 96-well format. Plasmid DNAs confirmed by DNA sequencing were reintroduced into both yeast (Y258) and E. coli (DH5a). […] 0.1 mM calcium was present in buffers in all subsequent steps. The chip was washed three times with PBS at RT. Cy3-conjugated streptavidin (Jackson IR, USA) (1:5000 dilution) was added to the chip and incubated for 30 min at RT. After extensive washing, the chip was spun dry and scanned using a microarray scanner; the data was subsequently acquired with the GENEPIX™ array densitometry software (Axon, USA). • 12 S. S. Hook, A. R. Means, Annu. Rev. […]

[2] = tested on: PI(3,4,5)P3 liposomes; test: Yeast proteome chip probed with PI(3,4,5)P3 liposomes; details: liposome binding signal on yeast proteome chip, Cy3-streptavidin detection
From the text: as §1, §2
(§4) • 1. S. Fields, Y. Kohara, D. J. Lockhart, Proc. Natl. Acad. Sci. 96, 8825 (1999); A. Goffeau et al., Science 274, 563 (1996). • 2 P. Ross-Macdonald et al., Nature 402, 413 (1999); J. L., DeRisi, V. R. Iyer, P. O. Brown, Science 278, 680 (1997); E. A. Winzeler et al., Science 285, 901 (1999). P. Uetz et al., Nature 403, 623 (2000); T. Ito et al., Proc. Natl. Acad. Sci. USA. 97, 1143 (2000) • 3 H. Zhu, M. Snyder, Curr. Opin. Chem. Biol. 5, 40 (2001). • 4 M. R. Martzen et al., Science 286, 1153 (1999). • 5 H. Zhu et al., Nat. Genet. 26, 283 (2000). • 6 G. MacBeath, S. L. Schreiber, Science 289, 1760 (2000). • 7 A. Caveman, J. Cell Sci. 113, 3543 (2000). • 8 P. Arenkov et al., Anal. Biochem 278, 123 (2000). • 9 D. A. Mitchell, T. K. Marshall, R. J. Deschenes, Yeast 9, 715 (1993). The expression vector pEGH was created by inserting an RGS-HisX6 epitope tag between the GST gene and the polycloning site of pEG(KG). The yeast ORFs were cloned using the strategy described previously (5), except every step was done in a 96-well format. Plasmid DNAs confirmed by DNA sequencing were reintroduced into both yeast (Y258) and E. coli (DH5a). […] 0.1 mM calcium was present in buffers in all subsequent steps. The chip was washed three times with PBS at RT. Cy3-conjugated streptavidin (Jackson IR, USA) (1:5000 dilution) was added to the chip and incubated for 30 min at RT. After extensive washing, the chip was spun dry and scanned using a microarray scanner; the data was subsequently acquired with the GENEPIX™ array densitometry software (Axon, USA). • 12 S. S. Hook, A. R. Means, Annu. Rev. Pharmacol. Toxicol.41, 471 (2001). • 13 M. S. Cyert, R. Kunisawa, D. Kaim, J. Thorner, Proc. Natl. Acad. Sci. USA 88, 7376 (1991). • 14 D. A. Stirling, K. A. Welch, M. J. Stark, EMBO J. 13, 4329 (1994). • 15 F. Bohl, Kruse, EMBO J. 19, 5514 (2000); E. Bertrand et al., Mol. Cell 2, 437 (1998). • 16 D. C. Winter, E. Y. Choe, R. Li, Proc. Nat. Acad Sci. USA 96, 7288 (1999). • 17 C.

[3] = tested on: PI(3,4)P2 liposomes; test: Yeast proteome chip probed with PI(3,4)P2 liposomes; details: liposome binding signal on yeast proteome chip, Cy3-streptavidin detection
From the text: as §1, §2, §4

[4] = tested on: PI(4,5)P2 liposomes; test: Yeast proteome chip probed with PI(4,5)P2 liposomes; details: liposome binding signal on yeast proteome chip, Cy3-streptavidin detection
From the text: as §1, §2, §4

[5] = tested on: PI(4)P liposomes; test: Yeast proteome chip probed with PI(4)P liposomes; details: liposome binding signal on yeast proteome chip, Cy3-streptavidin detection
From the text: as §1, §2, §3

[6] = tested on: PI(3)P liposomes; test: Yeast proteome chip probed with PI(3)P liposomes; details: liposome binding signal on yeast proteome chip, Cy3-streptavidin detection
From the text: as §1
The protein-liposome interaction was assayed as follows. Appropriate amounts of each lipid in chloroform were mixed and dried under nitrogen. The lipid mixture was resuspended in TBS buffer by vortexing. The liposomes were created by sonication. Blocked proteome chips were washed three to five times in PBS buffer, and the extra liquid on the glass surface was removed by tapping the slides vertically on a KIMWIPE™. 200 μl of liposome solution was added to the proteome chip and immediately covered by a hydrophobic plastic cover slip (GRACE BIO-LAB™, USA). After trapped air bubbles were removed, the chip was incubated in a humidity chamber at RT for one hour. To remove the cover slip, the chip was immersed into large volume of PBS buffer (50 ml), so that the slip would float away. […]

[7] = tested on: six different liposomes; test: Reverse membrane assay: proteins spotted on nitrocellulose probed with six liposomes; assay type: binding; details: HRP-conjugated streptavidin
Experimental: B. A reverse assay was carried out to test for protein-lipid interactions. The proteins were prepared and spotted onto nitrocellulose filters in a dilution series and probed with the six different liposomes. As a control, the six liposomes were also added to the BSA-blocked membrane. After extensive washing, the bound liposomes were detected using an HRP-conjugated streptavidin and an ECL kit.
C. Linear correlation between the binding signals and the amounts of Rim15p in a membrane assay. When liposome-binding signals of Rim15p from the membrane assay (FIG. 4B) were plotted against the concentration gradient of the spotted Rim15p, the binding signals of PI(4)P, PI(3,4)P2, PI(3)P, and PI(4,5)P2 correlated linearly with the amounts of Rim15p.
Therefore, six proteins, i.e., Rim15p, Eno2p, Hxk1p, Sps1p, Yg1059wp, and Gcn2p, were further tested for phosphoinositol binding using two types of standard assays (Williamson, 2000, Nat. Struct Biol. 7(10):834-7). For Rim15p, Eno2p, and Hxk1p, PI(4,5)P2 liposomes were first adhered to a nitrocellulose membrane, which was then blocked by BSA; different amounts of the GST fusion proteins and a GST control were used to probe the membrane, and bound proteins were detected using anti-GST antibodies. […] We also carried out the reverse assay for four GST fusion proteins, Rim15p, Sps1p, Yg1059wp, and Gcn2p (Guerra et al., 2000, Biosci. Rep. 20: 41). Different amounts of these purified proteins were spotted onto nitrocellulose filters and probed with the six different liposomes (FIG. 5B). The bound liposomes were detected using a horseradish peroxidase (“HRP”)-conjugated streptavidin.

[8] = target: T1, calmodulin (Homo sapiens, UniProt P0DP23); test: Yeast proteome chip probed with biotinylated calmodulin; assay type: binding; details: biotinylated calmodulin in the presence of calcium
T1 construct: purchased CalBiochem, USA
From the text: To test for protein-protein interactions, the yeast proteome was probed with calmodulin (11). Calmodulin is a highly conserved calcium-binding protein involved in many calcium-regulated cellular processes and has many known physical partners (Hook et al., 2001, Annu. Rev. Pharmacol. Toxicol. 41:471). The calmodulin probe was biotinylated, and bound probe was detected using Cy3-labeled streptavidin. As a control, the yeast proteome was probed with Cy3-labeled streptavidin alone.
Generally, protein-protein interactions can be assayed as follows. Blocked proteome chips are washed three to five times in PBS buffer, and the extra liquid on the glass surface is removed by tapping the slides vertically on a KIMWIPE™. 200 ∞l of biotinylated protein probe is added to the proteome chip and immediately covered by a hydrophobic plastic cover slip (GRACE BIO-LABS™, USA). After trapped air bubbles are removed, the chip is incubated in a humidity chamber at room temperature (RT) for one hour. To remove the cover slip, the chip is immersed into large volume of PBS buffer (>50 ml), and the slip should float away. The chip is then moved to a second PBS bath (>50 ml) and washed 3×5 min with shaking at RT. […]

Substance	PC [1]	PI(3, 4, 5)P3 [2]	PI(3, 4)P2 [3]	PI(4, 5)P2 [4]	PI(4)P [5]	PI(3)P [6]	liposome binding in reverse membrane assay [7]	calmodulin binding [8]
RRP5: yeast GST-HisX6 fusion protein on proteome chip	58.11	21.26	22.60	73.38	60.31			
PET9: yeast GST-HisX6 fusion protein on proteome chip	14.97	17.66	−5.81	26.13				
GCN2: yeast GST-HisX6 fusion protein on proteome chip	1087.04	975.60	232.01	505.60	1356.97	26.50	bound strongest to PI(3)P and PI(4)P and PI(3,4)P2	
SSB1: yeast GST-HisX6 fusion protein on proteome chip	12.91	4.27	6.28	1.31	16.98			
Arc35p: component of the Arp2/3 actin-organizing complex								identified
SDS3: yeast GST-HisX6 fusion protein on proteome chip		9.67	3.45	4.35	11.76			
